Test results: patent US20060083734A1, “Composition and method for repairing nerve damage and enhancing functional recovery of nerve” (priority 2004, published 2006)

What was measured:
Assay type in all cases: in vivo, rat
MCA occluded rats [1] = assay: Infarct volume analysis by TTC staining after MCA occlusion and reperfusion; settings: Long-Evans rats, 1 hr MCA occlusion, end of 4th week after FCI injury, topical GDNF 1 μg, mean±SEM, n=6
Experimental: (§1) Animals: The example conforms to the Guide for the Care and Use of Laboratory Animals, published by the US National Institutes of Health (NIH publication NO. 85-23, revised 1996). Male Long-Evans rats (National Lab. Animal Breeding and Research Center) weighing 300-350 g were used in this study. These animals were housed in a room with controlled temperature (24±1° C.) and humidity (55±5%) under a 12:12 h light-dark cycle. They were allowed free access to food and water.
Surgical procedure: The technique was a modification of the method of Huang et al (Huang S S, Tsai S K, Chih C L, Chiang L Y, Hsieh H M, Teng C M, Tsai M C. Neuroprotective effect of hexasulfobutylated C60 on rats subjected to focal cerebral ischemia. Free Radic Biol Med. 2001;30:643-649). In brief, each male Long-Evans rat was anesthetized by inhalation of a nitrous oxide/oxygen/halothane (69%:30%:1%) mixture during surgical preparation. Body temperature was maintained during surgery at 37±0.5° C. with a heating pad servo-controlled by a rectal probe. […] Measurements were performed before, during and right after unilateral MCA occlusion.
Focal ischemic infarcts were produced in the right lateral cerebral cortex in the territory of the MCA. Both common carotid arteries were exposed by midline anterior cervical incision. […]

MCA occluded rats [2] = assay: Accelerating rotarod test after FCI injury; settings: topical GDNF 1 μg
Experimental: as §1
(§2) Surgical procedure: The technique was a modification of the method of Huang et al (Huang S S, Tsai S K, Chih C L, Chiang L Y, Hsieh H M, Teng C M, Tsai M C. Neuroprotective effect of hexasulfobutylated C60 on rats subjected to focal cerebral ischemia. Free Radic Biol Med. 2001;30:643-649). […]
The accelerating rotarod was used to assess motor deficit following ischemic injury in rats (Hamm R J, Pike B R, O'Dell D M, Lyeth B G, Jenkins L W. The rotarod test: an evaluation of its effectiveness in assessing motor deficits following traumatic brain injury. J Neurotrauma. 1994; 11:187-196). The rats were placed on rungs of the accelerating rotarod and the time the animals remained on the rotarod was measured. […] The time in seconds at which each animal fell off the rungs was recorded. […]
(§3) Statistics. Data are expressed as mean±standard error of mean (S.E.M.). […]

MCA occluded rats [3] = assay: Grasping power test after FCI injury; settings: topical GDNF 1 μg
Experimental: as §1, §2
The grasping power test was a modification of the method of Bertelli et al (Bertelli J A, Mira J C. The grasping test: a simple behavioral method for objective quantitative assessment of peripheral nerve regeneration in the rat. J Neurosci Methods. 1995;59:151-155). […] Rats were allowed to grasp the bar while being lifted by the tail with increasing firmness until they loosened their grip and the grasping power was scored.
as §3

[4] = end of 1st week after FCI injury
[5] = end of 4th week after FCI injury

B1: Glial cell line-derived neurotrophic factor (protein, UniProt P39905 78-211, looked up)
Glial cell line-derived …: SPDKQMAVLPRRERNRQAAAANPENSRGKGRRGQRGKNRGCVLTAIHLNVTDLGLGYETKEELIFRYCSGSCDAAETTYDKILKNLSRNRRLVSDKVGQACCRPIAFDDDLSFLDDNLVYHILRKHSAKRCGCI
notes: GDNF (1 μg) dissolved in HBSS solution, topically applied
infarct volume (MCA occluded rats [1]): 108.0±12.1 mm^3
mean latency to stay on the rotarod, of baseline (MCA occluded rats [2]; [4]): 50.3%
mean latency to stay on the rotarod, of baseline (MCA occluded rats [2]; [5]): 67.3%
mean value of grasping power, of baseline (MCA occluded rats [3]; [4]): 71.7%
mean value of grasping power, of baseline (MCA occluded rats [3]; [5]): 97.6%
